Data taken from patent US20020009436A1, “Methods and compositions for inhibiting adhesion by microorganisms” (priority 1999, published 2002).

What was measured:
[1] = test system: S. aureus; assay: Fibronectin binding assay, S. aureus; format: cell-based; details: polyphenol oxidase 80 U/ml, asparaginase 20 U/ml
Method: Wells were filled with human serum fibronectin (50 μg/ml) diluted in carbonate buffer (50 mM Na2CO3—NaHCO3, pH 9.5 overnight). Controls were coated with 1% BSA. The wells were washed three times with PBS and incubated with PBS-Tween (0.5% Tween 20 and 0.05% NaN3) 1 h at 37° C. After attachment, the wells were washed three times with PBS-Tween and allowed to dry. Subsequent assays were as described hereinabove.

[2] = test system: S. sanguis; assay: Adhesion of S. sanguis to saliva-coated hydroxylapatite beads; format: cell-based, Streptococcus sanguis; details: polyphenol oxidase 100 μg/ml or 150 units; asparaginase 20 U/ml; 1 hr at 37° C.
Method: S. sanguis was grown and handled according to procedures known to those of skill in the art. Hydroxylapatite beads were coated with saliva and washed. Adhesion was measured using [^3H]thymidine labeled streptococci. Various cell densities were run but using a single 40 mg weight of beads.
The “cooperative” adhesion (loss of upward slope on the Scatchard plot) was absent following both enzyme treatments. Incubation of cells with enzymes was 1 hr at 37° C.

[3] = test system: F. nucleatum; assay: Hemagglutination assay of periodontopathogens, F. nucleatum; format: cell-based, Fusobacterium nucleatum; design: key: + Hemagglutination; − No hemagglutination; details: sheep blood, polyphenol oxidase 90 U/ml or asparaginase 20 U/ml, 90 min
Method: The hemagglutinations were carried out in 96 microwell (Nunc) plates in which 50 μl of 1% suspension of sheep blood and 50 μl of serially diluted cells suspension in phosphate buffered (10 mM Na2HPO4, 10 mM KH2PO4, 150 mM NaCl, 3 mM KCl) were added. The cells were adjusted at 1.4 OD at 540 nm. All the strains were treated in NaCl-free buffer with polyphenol oxidase (90 U/ml) or asparaginase (20 U/ml) for 90 min at 37° C. before hemagglutination.

[4] = test system: "trypsin-like" protease activity of P. gingivalis; assay: Trypsin-like protease activity of P. gingivalis cells (BAPNA); format: cell-based; details: asparaginase 20 U/ml, polyphenol oxidase 80 U/ml
Method: Cell suspensions of P. gingivalis were adjusted up to 1.3 OD at 540 nm in PB. A 100 μl volume of 700 μg/ml BAPNA (benzoyl-DL-arginine-p-nitroanilide) was added to 3 ml of cell suspension. The cells were incubated at 37° C. for different periods of time. The blank contained BAPNA and buffer in the same proportion as P. gingivalis cell suspension. Tubes were centrifuged and the subsequent supernatant was diluted 1:3 and read at 405 nm. Asparaginase and polyphenol oxidase were 20 and 80 U/ml, respectively.

[5] = test system: S. aureus; assay: Collagen binding assay, S. aureus; format: cell-based
Method: Wells were filled with 1 mg/ml soluble collagen overnight at 4° C. Control wells were coated with 1% BSA. The protein solutions were removed and permitted to stand at 37° C. for 1 h. A solution of 2% BSA was added to the wells to block unoccupied sites and prevent non-specific binding of bacteria. After 30 min, BSA was removed and the wells were washed once with distilled water. Finally, the bacterial suspensions (100 μl, OD 1.4) were added to the plates and incubated at 37° C. for 2 h. Unbound bacteria were removed by washing the wells three times with PBS containing 0.01% Tween 20. The wells were dried at 37° C. for 30 min and stained with crystal violet for 15 min. Wells were rinsed with distilled water and dried at 37° C. for 2 h. After adding 100 μl of 95% (v/v) ethanol to each well the plates were then shaken to release the stain and a reading of 550 nm was carried out.

[6] = test system: Type 1-fimbriated E. coli; assay: Flow cytometric adhesion of type 1-fimbriated E. coli to UECs; format: cell-based
From the text: Methods for handling polyphenol oxidase and asparaginase and for observing adhesion by microorganisms were generally as described in the previous Examples with variations to adapt these methods to epithelial cells.
The bacteria were labeled intracellularly with the fluorescein dye CFDA-SE. Median fluorescence intensity of the UECs was taken as a measure of the number of bacteria attached to them. In the Figures below, median fluorescence is converted to % adhesion using control conditions (UEC+untreated bacteria) as 100%.

[7] = test system: S. sobrinus 6715; assay: Disc-diffusion growth assay, S. sobrinus; details: 500 μg/ml and 1.0 mg/ml, 18 h
Method: Standard disc-diffusion assays were performed with 500 μg/ml and 1.0 mg/ml of polyphenol oxidase. Duplicate series of ten-fold dilutions (to 10^−8) of late exponential phase cultures of S. sobrinus were made in PBS. Eighty μl of each concentration of polyphenol oxidase was pipetted onto 13 mm sterile filter paper discs. The discs were applied to the center of agar plates previously inoculated with lawns of S. sobrinus. Plates were incubated for 18 h and examined visually for any effect of polyphenol oxidase on growth of the bacteria.
Duplicate series of ten-fold dilutions (to 10^−8) of late exponential phase cultures of S. sobrinus were made in PBS. Eighty , μl of each concentration of asparaginase was pipetted onto 13 mm sterile filter paper discs. The discs were applied to the center of agar plates previously inoculated with lawns of S. sobrinus. Plates were incubated for 18 h and examined visually for any effect of asparaginase on growth of the bacteria.

[8] = test system: proteolytic activity of the P. gingivalis; assay: Hydrolysis of collagen substrate (azocoll) by P. gingivalis; format: cell-based
From the text: The asparaginase and polyphenol oxidase thus not only affect the adhesion and/or hemagglutination, but also the proteolytic activity of the P. gingivalis.

[9] = test system: S. sobrinus glucosyltransferase; assay: Purified S. sobrinus glucosyltransferase treated with asparaginase; format: biochemical
Method: Glucosyltransferase activity was detected as described in the art, with some modifications described hereinbelow. Protein samples were mixed with electrophoresis sample buffer and incubated for 1 to 4 h at 37° C. before the gel was run. Nonfixed gels were incubated in 50 mM sodium acetate (pH 5.5) containing 1% vol/vol Triton X-100, 2 % (wt/vol) sucrose, and 0.07% (wt/vol) NaN3 at 37° C. for 24 h. Gels were also incubated in the same buffer with glucan T2000 (2 to 4 mg/ml) or fluorescein isothiocyanate-conjugated glucan T-10 (2 mg/ml) to detect both glucosyltransferases and glucan binding proteins (GBPs). After incubation, the gels were fixed for 30 min in 75% ethanol and rocked on a shaker for 30 min with 0.7% periodic acid in 5% acetic acid. The gels were then shaken for 1 h in 0.2% (wt/vol) sodium metabisulfite in 5% acetic acid. After two additional treatments in sodium metabisulfate and acetic acid, the gels were placed in Schiff's reagent for 0.5 to 1 h. Finally the gels were washed extensively in 45% methanol-45% acetic acid-10% H2O for destaining. In some experiments, purified protein was treated with 100 μg/ml polyphenol oxidase for 1 h, or with asparaginase, before loading on the gel.

[10] = test system: endogenous bacteria attached to UECs; assay: Removal of endogenous biota from sloughed urinary epithelial cells; format: cell-based; details: for Percent UECs with ≧30 Bacteria Attached: PBS 30
Method: Sloughed epithelial cells were incubated with the enzymes, collected by filtration, transferred to microscope slides and stained with crystal violet. Then 50 epithelial cells from each slide were randomly assessed for the numbers of bacteria associated with them and placed into one of four categories: Cells with 0-9, 10-29, 30-49, or >50 bacteria associated with them.

B1: asparaginase: enzyme that catalyzes hydrolysis of the side chain amide group of asparagine to a carboxyl group; E. coli asparaginase (protein, UniProt P00805 23-348, looked up)
L-asparaginase 2: LPNITILATGGTIAGGGDSATKSNYTVGKVGVENLVNAVPQLKDIANVKGEQVVNIGSQDMNDNVWLTLAKKINTDCDKTDGFVITHGTDTMEETAYFLDLTVKCDKPVVMVGAMRPSTSMSADGPFNLYNAVVTAADKASANRGVLVVMNDTVLDGRDVTKTNTTDVATFKSVNYGPLGYIHNGKIDYQRTPARKHTSDTPFDVSKLNELPKVGIVYNYANASDLPAKALVDAGYDGIVSAGVGNGNLYKSVFDTLATAAKTGTAVVRSSRVPTGATTQDAEVDDAKYGFVASGTLNPQKARVLLQLALTQTKDPQQIQQIFNQY
[1]; S. aureus Cowan, untreated 0.33
  Absorbance (fibronectin): 0.18
[1]; S. aureus Wood, untreated 0.42
  Absorbance (fibronectin): 0.35
[2]
  adhesion to hydroxylapatite: reduced adhesion
[3]; dilution 1/2
  Hemagglutination: +
[3]; dilution 1/8
  Hemagglutination: +
[3]; dilution 1/16
  Hemagglutination: +
[3]; dilution 1/32
  Hemagglutination: +
[3]; dilution 1/64
  Hemagglutination: +
[3]; dilution 1/128
  Hemagglutination: −
[3]; dilution 1/256
  Hemagglutination: −
[3]; dilution 1/512
  Hemagglutination: −
[4]
  trypsin-like activity (BAPNA hydrolysis): diminished
[5]; S. aureus Cowan, untreated 0.47
  Absorbance (collagen): 0.30
[5]; S. aureus Wood, untreated 0.40
  Absorbance (collagen): 0.26
[6]; asparaginase <2 units/ml
  decrease in adhesion to UECs: 13%
[6]; asparaginase >2 units/ml
  decrease in adhesion to UECs: 85-90%
[6]; asparaginase singly, 10 units/ml
  prevention of adhesion to UECs: 90%
[6]; bacteria first incubated with MUMB 50 mM, then polyphenol oxidase 141 units/ml or asparaginase 10 units/ml
  reduction in adhesion to UECs: 50%
[6]; mannopyranoside 50 mM followed by asparaginase 10 units/ml
  increase in adhesion to UECs: 40%
[7]
  inhibition of growth of S. sobrinus: did not significantly inhibit growth
[8]
  hydrolysis of the collagen substrate (azocoll): reduction of the hydrolysis
[9]
  binding by the glucosyltransferase to high molecular weight dextrans: reduced binding
[9]; not shown
  activity gel (hydrolysis of sucrose following renaturation of an SDS-PAGE gel): loss of activity
  glucan binding, enhanced chemiluminescence gel: loss of glucan binding
[10]
  numbers of UECs with large numbers of endogenous bacteria: little or no effect
[10]; asparaginase 5 U/ml, 30 minute incubation
  Percent UECs with ≧30 Bacteria Attached: 28%
[10]; asparaginase 10 U/ml, 30 minute incubation
  Percent UECs with ≧30 Bacteria Attached: 26%
[10]; polyphenol oxidase 70 or 140 U/ml, asparaginase 5 or 10 U/ml, 30 minute incubation
  effects on the numbers of endogenous bacteria attached to UECs: relatively minor effects
